Source: publication PMC10377175

Key:
[1] = biological target: T1, ENOX2 (tNOX) (Homo sapiens) (UniProt Q16206); test: electrochemical (E-DNA, square wave voltammetry); conditions: apparent Kd; 0.1-200 nM ENOX2; PBS with 1 mM MgCl2; internal methylene blue on thymine T21 (printed after ...CATCTTT); 5' disulfide linker reduced to thiol; EMSA: 0.7% agarose, 0.5x TBE (65 mM Tris, 22.5 mM boric acid, 1.25 mM EDTA, 0.5 mM MgCl2, 0.005% Tween-20, pH 8.3); E-DNA: PBS pH 7.4 (137 mM NaCl, 10 mM …)
T1 sequence: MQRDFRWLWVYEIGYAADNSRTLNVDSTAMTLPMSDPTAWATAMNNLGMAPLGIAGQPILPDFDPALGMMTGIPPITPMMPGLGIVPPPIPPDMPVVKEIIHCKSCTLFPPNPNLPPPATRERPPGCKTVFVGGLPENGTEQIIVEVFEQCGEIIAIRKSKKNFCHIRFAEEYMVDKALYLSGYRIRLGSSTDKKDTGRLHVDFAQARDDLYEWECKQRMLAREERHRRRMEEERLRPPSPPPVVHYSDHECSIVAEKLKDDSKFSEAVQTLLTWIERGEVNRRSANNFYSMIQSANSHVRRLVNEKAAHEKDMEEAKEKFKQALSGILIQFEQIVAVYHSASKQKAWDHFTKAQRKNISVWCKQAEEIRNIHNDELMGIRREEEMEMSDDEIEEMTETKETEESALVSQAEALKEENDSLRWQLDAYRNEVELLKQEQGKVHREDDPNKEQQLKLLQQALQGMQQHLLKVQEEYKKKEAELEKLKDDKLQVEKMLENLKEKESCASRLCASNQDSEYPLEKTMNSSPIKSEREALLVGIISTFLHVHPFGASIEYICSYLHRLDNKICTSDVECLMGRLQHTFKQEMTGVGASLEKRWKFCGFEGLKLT

[2] = biological target: T1, ENOX2 (tNOX) (Homo sapiens); test: EMSA; conditions: apparent Kd; 1 nM aptamer, 0-100 nM ENOX2; 0.5 mM MgCl2; EMSA: 0.7% agarose, 0.5x TBE (65 mM Tris, 22.5 mM boric acid, 1.25 mM EDTA, 0.5 mM MgCl2, 0.005% Tween-20, pH 8.3); E-DNA: PBS pH 7.4 (137 mM NaCl, 10 mM …)

| Sequence | Kd [1] | Kd [2] |
| --- | --- | --- |
| TAAAGATCCCTGTTCATCTTTTCTCGAGTGTTCTTTAGAACAATGAATCTTT [ENOX2 E-DNA biosensor aptamer] | 6 nM | – |
| TTTTTTAGATCCCTGTTCATCTGTCTCGAGTGTTCTTTAATGATCTTTTT [ENOX2-binding aptamer, 5' fluorescein] | – | 0.4 nM |
